Results on two substances are retold here after paper PMC3428924.

In test [1] the target is elongation factor 1B beta (eEF1Bβ) of C. fasciculata (C. fasciculata (endogenous in choanomastigotes)). Briefly: SEC. (In general: In gel filtration, larger molecules generally elute earlier.)
The target of test [2] is elongation factor 1B alpha (eEF1Bα) of C. fasciculata (C. fasciculata (endogenous in choanomastigotes)). Kind of test: SEC.

Regarding “elongation factor 1B gamma (eEF1Bγ) of C. fasciculata (natural protein)”, the stoichiometry N was 2 γ per β in test [1] and 2 γ per α in test [2]. On to “elongation factor 1B alpha (eEF1Bα) of C. fasciculata (natural protein)”, for which the stoichiometry N in test [1] is 1 α per β.

For orientation: stoichiometry N means the number of molecules, sites or subunits per partner or assembly.
